Here are results for two substances from article PMC8943062.

Test [1] addresses open-gate E71V KcsA channel (chymotrypsin-truncated, TM1 and TM2 cross-linked by C28-C118 disulfides) (UniProt P0A334). The test is described as follows: crystal structure; KcsA-Fab complex (formed from purified channel in DM and Fab, excess Fab removed by SEC) concentrated to 15 mg/ml, crystallised in 50 mM magnesium acetate, 50 mM sodium acetate pH 5.5, 25% PEG 400 at 20 °C; one monomer in the asymmetric unit. (In gel filtration, larger molecules generally elute earlier.)

Test [2] addresses closed-gate E71V KcsA channel (chymotrypsin-truncated) (UniProt P0A334). The description is as above.

“open-gate E71V KcsA channel (chymotrypsin-truncated, TM1 and TM2 cross-linked by C28-C118 disulfides) (from UniProt P0A334 1-160) (natural protein)”: in test [1], the stoichiometry N (commonly a count of units in the complex or per binding partner) stood at 4.

For the substance “closed-gate E71V KcsA channel (chymotrypsin-truncated) (from UniProt P0A334 1-160) (natural protein)”, in test [2], the stoichiometry N stood at 4.
